Values belong to the binder of their own block, whether it stands above or below them.
Molecular target: T1, Bcl2 (UniProt P10415 1-207, limits assumed, biotinylated)
T1 construct: Loaded on streptavidin biosensors; also called Biotinylated Bcl2; target
Assay: bio-layer interferometry (Octet), Bcl2 on tips, switch with nine residue toehold with and without cognate key
Text: Specificity was designed for using different hydrogen bond networks at the cage-key interface. The latch helix was deleted from the original extended LOCKRₐ model and backbones for a new sixth helix were generated by parametrically sampling the radius, helical phase, and z-offset of the new latch/key helix. The resulting structures were scanned for new hydrogen bond networks spanning the interface between the new sixth helix and cage with all buried polar atoms participating in hydrogen bonds; the remaining interface around the networks was subjected to full sequence and sidechain rotamer optimization using Rosetta™ design. Five designs were selected based on packing quality, sequence dissimilarity, and lack of buried polar atoms not participating in hydrogen bonds. Truncations and toehold variants were assayed for cognate and off target key binding using the GFP pulldown assay from FIG. 1c. […] All bound keyₐ to some extent yet is unknown. The Bim sequence was threaded onto the latches of these three designs as it was for the original design, BimLOCKRₐ (FIG. 2). BimLOCKRb and BimLOCKR, show 22-fold and 8-fold activation, respectively, from their cognate keys given a nine residue toehold on the latch (FIG. 3a,b). BimLOCKRₐ, BimLOCKRb and BimLOCKRc are also orthogonal; each is activated only by its cognate key at concentrations up to 5 uM (FIG. 3c). […]

T1 sequence (P10415 1-207 limits assumed): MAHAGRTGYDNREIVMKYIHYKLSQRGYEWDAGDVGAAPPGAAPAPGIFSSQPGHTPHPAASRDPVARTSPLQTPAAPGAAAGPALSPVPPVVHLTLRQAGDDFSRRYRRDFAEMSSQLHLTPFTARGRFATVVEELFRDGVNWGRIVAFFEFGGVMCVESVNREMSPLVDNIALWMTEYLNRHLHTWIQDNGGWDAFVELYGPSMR

fold activation of binding by the cognate key: 22 fold
B1: BimLOCKRb (nine residue toehold) (designed binder)
chain: MGSSHHHHHHSSGLVPRGSHMSHAAVIKLSDLNIRLLDKLLQAVIKLTELNAELNRKLIEALQRLFDLNVALVHLAAELTDPKRIADEIKKVKDKSKEIVERAEEEIARAAAESKKILDEAEEEIARAAAESKKILDEGSGSGSDAVAELQALNLKLAELLLEAVAELQALNLKLAELLLEAIAKLQELNIKLVELLTKLTDPATIREAIRKVKEDSERIVAEAERLIAAAKAESERIIREAERLIAAAKAESERIIREGSGSNDPQVAQNQETFIELARDALRLVAENQEAFIEVARLTLRAAALAQEVAIKAVEAASEGGSGSGNEIWIAQELRRIGDEFNAYYAEHKEIHDKLRKKNKKAREDLKKKADE

fold activation of binding by the cognate key: 8 fold
B2: BimLOCKRc (nine residue toehold) (designed binder)
chain: MGSSHHHHHHSSGLVPRGSHMSLEAVLKLAELNLKLSDKLAEAVQKLAALLNKLLEKLSEALQRLFELNVALVTLAIELTDPKRIADEIKKVKDKSKEIVERAEEEIARAAAESKKILDEAEEEIARAAAESKKILDEGSGSGSDAVAELQALNLKLAELLLEAVAELQALNLKLAELLLEAIAKLQELNIKLVELLTKLTDPATIREAIRKVKEDSERIVAEAERLIAAAKAESERIIREAERLIAAAKAESERIIREGSGSNDPLVARLQELLIEHARELLRLVATSQEIFIELARAFLANAAQLQEAAIKAVEAASENGSGEIWIAQELRRIGDEFNAYYAQNQKLLKDHKRAQEKLNRELEELKKKHKK
notes: also called printed once as 'BimLOCKR,'
